# Test: label from the status in PepcDB records
# 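Further: failed if final PepcDB status was selected cloned or expressed and not failed if soluble or beyond.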
row,Sequence,protein production
1,MANRSHHNAGHRAMNALRKSGQKHSSESQLGSSEIGTTRHVYDVCDCLDTLAKLPDDSVQLIICDPPYNIMLADWDDHMDYIGWAKRWLAEAERVLSPTGSIAIFGGLQYQGEAGSGDLISIISHMRQNSKMLLANLIIWNYPNGMSAQRFFANRHEEIAWFAKTKKYFFDLDAVREPYDEETKAAYMKDKRLNPESVEKGRNPTNVWRMSRLNGNSLERVGHPTQKPAAVIERLVRALSHPGSTVLDFFAGSGVTARVAIQEGRNSICTDAAPVFKEYYQKQLTFLQDDGLIDKARSYEIVEGAANFGAALQRGDVAS,not failed
2,MSDSSPTINFINFNQTGTCISLGTSKGFKIFNCEPFGKFYSEDSGGYAIVEMLFSTSLLALVGIGDQPALSPRRLRIINTKKHSIICEVTFPTSILSVKMNKSRLVVLLQEQIYIYDINTMRLLHTIETNPNPRGLMAMSPSVANSYLVYPSPPKVINSEIKAHATTNNITLSVGGNTETSFKRDQQDAGHSDISDLDQYSSFTKRDDADPTSSNGGNSSIIKNGDVIVFNLETLQPTMVIEAHKGEIAAMAISFDGTLMATASDKGTIIRVFDIETGDKIYQFRRGTYATRIYSISFSEDSQYLAVTGSSKTVHIFKLGHSMSNNKLDSDDSNMEEAAADDSSLDTTSIDALSDEENPTRLAREPYVDASRKTMGRMIRYSSQKLSRRAARTLGQIFPIKVTSLLESSRHFASLKLPVETNSHVMTISSIGSPIDIDTSEYPELFETGNSASTESYHEPVMKMVPIRVVSSDGYLYNFVMDPERGGDCLILSQYSILMD,failed
3,MTDSTTLQQPAGANNLYGGLLSAQGLDLDQFETIHTQVQAWKTTAGTDVKFVEARELPIVDVILRFKAGTTQDTLYPGLAALTLSMLDEGSQAYTAAQQAEHLERLGAVMEKQVRLEHATLRLRSLSPPSLLDPALAVFTDLVAHPVFHPMALTRIKRQLLQNHASRERLPILRARSEVFRHLFNGHPYGNPLGSTAQGIEAITPEDLRAFHQRAYSASNLEMVVVGDLSPGQAQAISQQISQALPQGWSATELPAAPSAPSATIAVEQAGASSAILLALPMNVPANDPEFLALALASAVLGEGLESRLMVELRQRRGLTYGVHTHVLPLSAGGLFTVEWEVAPQHVQGTQALVETLLQAFIDEGPTQLELQLARKQLEGQLLRGIAQNRQLATLLTEVTHQRQPADHLDTYSARIAELTPADVRAVMQRRLALSHKVLVSVGPGVQQQPLPAPDQ,failed
4,MTVSGPGTPEPRPATPGASSVEQLRKEGNELFKCGDYGGALAAYTQALGLDATPQDQAVLHRNRAACHLKLEDYDKAETEASKAIEKDGGDVKALYRRSQALEKLGRLDQAVLDLQRCVSLEPKNKVFQEALRNIGGQIQEKVRYMSSTDAKVEQMFQILLDPEEKGTEKKQKASQNLVVLAREDAGAEKIFRSNGVQLLQRLLDMGETDLMLAALRTLVGICSEHQSRTVATLSILGTRRVVSILGVESQAVSLAACHLLQVMFDALKEGVKKGFRGKEGAIIVDPARELKVLISNLLDLLTEVGVSGQGRDNALTLLIKAVPRKSLKDPNNSLTLWVIDQGLKKILEVGGSLQDPPGELAVTANSRMSASILLSKLFDDLKCDAERENFHRLCENYIKSWFEGQGLAGKLRAIQTVSCLLQGPCDAGNRALELSGVMESVIALCASEQEEEQLVAVEALIHAAGKAKRASFITANGVSLLKDLYKCSEKDSIRIRALVGLCKLGSAGGTDFSMKQFAEGSTLKLAKQCRKWLCNDQIDAGTRRWAVEGLAYLTFDADVKEEFVEDAAALKALFQLSRLEERSVLFAVASALVNCTNSYDYEEPDPKMVELAKYAKQHVPEQHPKDKPSFVRARVKKLLAAGVVSAMVCMVKTESPVLTSSCRELLSRVFLALVEEVEDRGTVVAQGGGRALIPLALEGTDVGQTKAAQALAKLTITSNPEMTFPGERIYEVVRPLVSLLHLNCSGLQNFEALMALTNLAGISERLRQKILKEKAVPMIEGYMFEEHEMIRRAATECMCNLAMSKEVQDLFEAQGNDRLKLLVLYSGEDDELLQRAAAGGLAMLTSMRPTLCSRIPQVTTHWLEILQALLLSSNQELQHRGAVVVLNMVEASREIASTLMESEMMEILSVLAKGDHSPVTRAAAACLDKAVEYGLIQPNQDGE,failed
5,MLYHLVMLEPEGEGAMDRIMEAMAILDGLAPELPGLTEFRHGPNRDFEQKSERYPYGFLCTFTDKAALDAYAVHPTHQRAGGMLVASCRNGADGILVVDLEV,not failed
6,SGSSMEEKVVAVIMVGGPTKGTRFRPLSLNIPKPLFPIAGQPMVHHPISACKRIPNLAQIYLVGFYEEREFALYVSAISNELKVPVRYLREDKPHGSAGGLYHFRNLIMEDSPSHIFLLNCDVCCSFPLPKMLEAHRGYGGIGTLLVIKVSPESASQFGELVADPVTNELLHYTEKPETFVSDRINCGVYVFTPEIFNAIGDVSTQRKDRATLKRVSSFEALQPATRIPTDFVRLDQDILSPLAGKKRLYTYETMDFWEQIKSPGMSLRCSGLYLSQFRLTSPQLLASGDGTRSAIVIGDVYIHPSAKVHPTAKIGPNVSISANARVGPGVRLMSCIILDDVEIMENAVVTNAIVGWKSSIGRWSRVQAEGVYNSKLGVTILGDSVAVEDEVAVTSSIVLPNKTLNVSVQDEIIL,failed
7,KFDSDIDEVVYGSRLIGSDPDLVLHGGGNTSVKTTERDHAGRIISVLRVKNSGSNLGTIDSRGFTGIRMDDALAAAKIDKMTDEAMVDYLKKSMVNPSEPSPSVETFLHAFLPYKFVMHSHADAILSITNTDLPSDQIAKILGNVVVLPYIPPGFTLAKEVMNCFKKGIDGIVLRKHGLLTFGDTGKEAYDRHINIVSRAENFIREKTDGK,not failed
8,MNHRSVRGICATLGVLLVIGCSGPDAKKAKFYAKGKELYDKGDYAKAALEFKNAIQIDPKYAEAYHMLGLVEMKKGNIKGAFGNFTKAVELNPQHQEARLQLGRIYLGAGAPDEAMKEAVEVLKINPASEDAQLLKGAVLIARKEKGKARELLEGLVAKGVKKPDAYSLLASIHALDGNAKDAEAILRKGLAINPSSSDLHLTLAGLCVGTGRTDEAISLLQRVVSLEPGRTDHRLKLAALCWDTGKVAEARKALTDLVAIAPEKEENRLQAAGFLAGKGEADEAEKLLKEGIAGKGKNYKLRFALADLYLNTGKGDQAVTLLTETAGLDKASRQESLQAKNALAQIALDRNRVDEAVKLVTEVLKESPKNTDARFLKGNIHMMKGEGAQAVAEYRTVVTDNPQSVPGFIRLAEAHLLNREKNLAFDNLQNALKIDPENRDALVALARYHVMQKDMKNAEAALRKVLAKSPNDLEAKAELGDLFLAAGDLKRAEAEYGELKRKAPGLPVGYVKMGDIYLHRGKSDKALAELEQAVRLNPSSELLAGSLARLYTRLGKFDKAEFLLDQRLKQNPNDAASYTLLGQMNVARNQYGKARQAYEKALSLNGSNWSAANDLAFLLAETGSGADLDRALTLIEKVKQSRPDDPRVLDTVGWIYYKKGNAGKAVEILSQVHRKTGDSPVIDYHLGMASYKAGDKARAKELLTKAMTSKSGFAGREEAVKTLGIIKG,failed
9,DARKGNASAPVVAVEFFDYQCGYCKGALPELAAALSGRNDVAVVMKEFPILGSTSEAAARLALAVRAEHGDEAYLGFHNALLSHKGGLNEAALSILAGAAGYDYPALVARGRQDDITSIIDGNRRLAQALSISGTPAFVFRDGEVVPGMMAADRLTAAFDRLSASTAAAQ,failed
10,MHGTNPVPKLPKKIPMQADPNAAPPALDDETLAFAARLFQYARMGHAEELAELFGQGLPANLRNDKGDSLLMLAAYNGQAATARVILEAGGDPELANDRGQTPLAGAAFKGDADIVRLLLEHGAQVDGAGDGTRTALMVAAMFDRTEIVDLLLAQGADPSRRDASGMSAADMARQMGAQNTPAQLERAQGDRAG,failed
11,MSKIEIFEAAGCCATSSVVVSDEAVKWNASAEWAKKHGVNIQRYSLAKNPQQFLNTPVIRAFLNTSGMESLPATLLDGQLVMAGKLPSREDIARWAGISLTQDWNEDSTQPRCCSIPRMP,failed
12,MTPFTVDILIPIWNRPVETRNCLVTLMETTPSARLILIDNGSDRETERLLEEFSEILGERALFLKTSANQGFVRAVNRSLAQVEAPYAVVMQNTTLVTRGWLEPMVELADSRPDAGIIVPRLELEDGQGRRPKAAPPAGPVTEVSHGSFAASMVRRELVERQGGFDEELDGGPWCLRDYSRRAFRNGFLTLALDGAVVTYAEEVPLGSVARREETVRRSAETCRARWGREDAFCIYFPKDAEPEAVHGKLDVILRGARMGQCFTLILHPGLHKSLMETGHAPLHSNIALAPLPRFFATGEIRKIIGKLASVRGDTVTVAGVDGLSIPGVEGARSFSWLADEIRRRHESLYRPESPLEHHHHHH,not failed
13,MNKRNTQQRRHSIISILNEQGEVSVDELSLRFETSEVTIRKDLAELEKTGLLLRRYGGAVAIPDEVTQQFSAKIAPNKLSIAKAAAQLIKDHNRIIIDSGTTTSGLIAELNQKRGLVVMTNALHLANAIHELENEPTLLMTGGTWDPHSESFQGQVAEQVLRSYNFDQLFIGADGIDLARGTTTFNELTGLSKVMAEVSREVIVMVDSDKIGKRIPNLELPWSKISVLVTDARIEESALKQITEQGVKVILAPYSP,failed
14,MSLFEQLDELAAQGKPAALLTIVRKDGSAPRDVGDKMIVTADEEYGTIGGGTVEHLAVQDARSVLSGADDPGIRTYELERGGNTGMVCGGEMDVFIDHVRGQAQLYIAGGGHISVELAPLAERLGYAVTVVDDREAYADPTQFPDETDVIHGEYGEALGDLPMGTETAVAVATRSGTFDQAAVAAALDGEAGYVGLVASETKANHVLDSLAESGYARRDLSRVQTPVGLDLGGSGPAAVALSVLAEVTMDRHDATGARATRLNLDDLVVVRGGGDLGSGVVYRLQQAGFPVIVTEVDQPTVVRRAVAFGAALYEDEVEVEGVTGRAAADIDEALELLADDVVPVLVDPEATVADDLDAAVLVDAIMAKGAFDTGTRREDADVVVGMGPGFEAGEDVDAVVETDRGHELGRVFYDGLEHHHHHH,not failed
15,DPKEGVQYEVLSTSLENDGMAPVTEVFALSCGHCRNMENFLPVISQEAGTDIGKMHITFNQSAHIASMFYYAAEMQVDGAPDHAFMEDLFAATQMGEGTTLTEQQEAYSKAFTSRGLVSPYDFNEEQRDTLIKKVDNAKMLSEKSGISSVPTFVVNGKYNVLIGGHDDPKQIADTIRYLLEK,not failed
16,MRGETELKQERSIALPLAISIIAISFAAVFVKMSSAPSSILSMYRLWIIVLLMLPIVWKKREEFSKIQIKDWGFLIGSGFFLALHFLLWFESLKHTTVASSTIILALQPIVSLVGGFFLFKERTTYSAIATMGIAILGVVCIGWGDLGLSEQAIYGDILSFLSVIAVVGYLFIGQTTVKKVSHWIYSFTVFAFAGIFMGIYNIVLQVPFTGYTKWDWTVFLLLAVVPTVSHVINNWLLNYVNATTISMSILGEPVGASILAFFLLGERLNAMQMIGSILVLFGVSVFLLQQQKRTAKNVVNEPVYTQEL,failed
17,MASYYSGFLGCEEPHFLESCSLCRKHLGLNSDIFMYRGDKAFCSNECREEQIESDEAKERKWKKSSRSLRKNSSETKESAAGNTVRTGTLVVA,failed
18,MRKYLAEFLGTFMLVFLGTATVVIAKGDVLAIGLAFGLAITVSAYAFGGISGGHFNPAVTTAMLINRRIDAADAIGYIIAQIIGAIVASAAVKSFVSALGLSATLLGQTDFPKIGSGMAFFVEALVTFLFLMVILNVTSNDHGNADFAGLTIGVTLAFLIIVALNLTGGSLNPARSIGPAIFAGGSALSHLWVYILAPEVGAILAAFCARVMGSED,failed

# Reference: a protein production outcome set (Wang et al. 2014)
